Target: C2 epitope-peptide (…, SEQ ID NO:21) / human HLA-A2 MHC class I molecule complex on the cell surface (human; human CMV)

TCR CMV-pp65-PE STAR™ multimer reagent (Altor Bioscience Corp., Miramar, Fla., U.S.)
iMFI: 10100 RFU
percentage of pMHC I complex presenting cells: 35%
